The record followed here is the nanobody polyreactivity screen of Harvey et al. (2022).

This data set can be described thus: yeast display, Sf9 membrane polyspecificity reagent, FACS + sequencing; frameworks hold sequencing errors. The procedure, abridged:
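Sorting gates, low and high (top ~1%), were placed on anti-HA fluorescence to track expression and on streptavidin fluorescence to track reagent binding. A clone's polyreactivity label is taken from the gate it came out of. The reagent was 10% biotinylated, detergent-solubilized Sf9 membrane, applied for 1 hour at 4 °C to galactose-induced yeast display cells.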
Consider “QGQHVESGGGLVQAGGSLRLSCDASGSTIYQYAMGWYRQAPGKESELVAAISGISGSTSYADSVTGRFTISRDNAKNTVYLQMNSLKPEDTAVYDCAKGTAPIPYRGRVGTSKSDYWGQGTQVTVSS”, for which the “polyreactivity (PSR sort gate)” value is listed as “low polyreactivity”. For “QVQLVESGGGLVQAGGSLRLSCSASGFTFNYNAMGWYRQAPGKERELVASITRSGGRTYYADSVKGRFTISRDNAKITVYLQMNSLKPEDTAVYYCAAEVWYSLSYRVYGGYDFWGQGTQVTVSS” the value was “high polyreactivity”; for “QVQLVESGGGLVQAGGSLRLSCAASGRIRPRNAMGWYRQAPGKERELVAGISSDGSTNYADSVKGRFTISRDNAKNTVYLQMNSLKQEDTAVYYCAADGVYDPNLYGYWGQGTQLTVSS”, “low polyreactivity”. As to “QVHLVESGGALVQAGGSLRLSCAASGSTFWFYAMLWYRQAPGKERELVAAITRSAGSTYYADSVKGRFTISRDNAKYTVFLQMNSLKPEDTAVYYCAAQRESLYGGFDSWGQGTQVTVSS”, the “polyreactivity (PSR sort gate)” value is “low polyreactivity”. For “QVQLVESGGGLVQAGGSLRLSCAASGSSFNYNTMGWYRQAPGKERELVADISWSGGSTYYADSVKGRFTISRDNAKNTVYLQMNSLKPEDTAVYYCAADFGLFPYVGTGYYYWGQGTQVTVSS” the value was “low polyreactivity”; for “QVQLVESRGGLVQAGGSLRLSCATSGIFVVYALGWYRQAPGKVRELVAAISSGVSTSYADSVKGRFTISRENAKNTVYLQMNSLKPEDTAVYYCNTLWGHKFIVPFRTREFYYWGQGTQVTVSS”, “low polyreactivity”; for “QVKLVESGGGLVQAGGSLSLSCAASGRIFSYNAMGWYRQAPGKERELVAVISRSDTSTYYADSVKGRFTISRDNAKNTVYLEMNSLKPEDTAVYYCNADGPTYFRYSGYYYWGQGTQVTVSS”, “low polyreactivity”. For “QVQLVESGGGLVQAGGSLRLSCAASGRISYGYAMGWYRQAPGKERELVAAISRSGGTTYYADSVKGRFTISRDNAKNTVYLQMNSLKPEDTAVYYCNRVWYATDFVNTMGYWGQGTQVTVSS” the value was “low polyreactivity”; for “QVQLVESGGGLVQAGGSLRLSCAASGSTFGYYTMGWYRQAPGKERELVAAITWSGGSTYYADSVKGRFTISRDNAKNTVYLQMNSLKPEDTAVYYCADDDYWTPFGYWGQGTQVTVSS”, “low polyreactivity”. The same measure for “QVQLVESGGGLVQAGGSLRLSCAASGSTFYYYAMGWYRQAPGKEREFVAAISGGDGTTSYADSVKGRFTISRDNAKNTVYLQMNSLKPEDTAVYYCATPYTSYLYGYDYWGQGTQVTVSS”: “low polyreactivity”; for “QVQLVESAGGLVQAGGSLSLSCAASAFTYVCNRMGWNRQAPGKERELVAAITGSGSTNYADSVKGRFTISRDNAKNTVYLQMNSLKPEDTAVYYCATSDRQVKYDYWGQGTQVPVSS”: “low polyreactivity”.

Turning to “QVQLVESGGGLVQAGGSLRLSCAASGRIFYYNVMGWYRQAPGKERELVASISYSSTRTYYADSVKGRFTISRDNAKNTVYLQMNSLKPEDTAVYYCAVDTYAYRGVSYWSERTYYYWGQGTQVTVSS”, the “polyreactivity (PSR sort gate)” value is “low polyreactivity”.

Take “QVQRVESGGGLVQAGGSLRLSCAATGLIFSPYAMGWYRQAPGKEREFVAGITWRGGNTYYADSVKGRFTISRDNAKNTVYLQMNSLNPEDTAVYYCAAYERKFYTVSRWYKLDYWGQGTQVTVSS”: the “polyreactivity (PSR sort gate)” value was “high polyreactivity”. The same measure for “QVQLVESGGGLVQAGGSLRLSCAASGSIIRYNAMGWYRQAPGKERELVAAITKGAGSTYYADSVKGRFTISRDNAKNTVYLQMNSLKPEDTAVYYWNKARGSGHTYYSWGLGTQVTVSS”: “high polyreactivity”; for “QVQLVESGGGLVQAGGSLRLSCAASGITFDKNTMGWYRQAPGKERELVAAISARGGSTYYADSVKGRFTISRDNAKNTVYLQMNSLKPEDTAVYSCAADYSARYGYWGQGTQVNVSS”: “high polyreactivity”.

“QVQLVETGGGLVQAGGSLRLSCAASGSIFFDYAKGWSRQAPGKERELVAAIRWSGGRTSYADSVKGRFTISRDNAKNSVYLQMNSVKPEDTAVYYCSARWNRVRYGFDYWGQGTQVTVSS”: the “polyreactivity (PSR sort gate)” value is given as “high polyreactivity”. For “QVQLVESGGGLDQAGGSLRLSCAASGSTFLHYAMGWYRQAPRKERELVAAISFSGVRTYYADSVKGRFTISRDNAKNTVYLQMNSLKPEDTAVFYCAADGHHADYDYWGQGTQVTVSS” the value was “low polyreactivity”; for “QVQLVESGGGLVQAGGSLRLSCAASGSIFSYYAMGWSRQAPGKERELVAAIRRGGSTNYADSVKGRFTISRDNAKNTVYLQMNSLKPEDTAVYYCAASLGWRPSFSYYWGQGTQVTVSS”, “high polyreactivity”; for “QVQLVESGGGLVQAGGSLRLSCAASGSTFTSYAMGWYRQAPGKERELVAAIRYRGDGTYYADSVKGRCTISRDNAKNTVNLQMNSLKPEDNAVYYCAADTTLQAFIRYRPIGSYDSWGQGTKVTVSS”, “low polyreactivity”. For “QVQLVESGGGLVQAGGSLSLTCAASGRTFESNAMGWYRQAPGKERELVAVITSGGITNYTDSVKGRFTISRDNAKNTVYLQLNSLKPVDTAVYYCEFYYWGQGTQVTVSS” the value was “low polyreactivity”; for “QVQLVESGGGLFQAGGSLRLSCAASGFTFFIYAMGGSRQAPGKEREFVAAITGSGGSTYYADSVKGRFTISRDNAKNTVYLQLNSLKPEDTAVYYCNKLSYGRSGYWGQGTQVTVSS”, “high polyreactivity”.

Consider “QVQLVESGGGLVQAGGSLRLSCAASGSTFYPYAMGWYRQAPGTEREFVAAITWSGGSTYYADSVKGRFTISRDNAKNTVYLQMNSLKPDDTAVYYCNAVVATSKYTDYYWGQGTQVTVSS”, for which the “polyreactivity (PSR sort gate)” value is “low polyreactivity”. For “HVQLQESGGGLVQAGGSLRLSCAASGSIFQATYMGWYRQAPGKEREFVASITYGSITNYADSVKGRFTIGRDNPKDTLYLQMNSLKPEDTAVYYCAVDRHYIPAFHYWGQGTQVTVSS” the value was “low polyreactivity”. The same measure for “QVQLVESGGGLVQAGGRLRLSCAASGRIFVRYVMGWYRQAPGKERELVAAISGGGSSTYYADSVKGRFTISRDNAKNTVYLQMNSLKPVDTAVYYCAAKGTRQPRFDFWGQGTQVTVSS”: “high polyreactivity”; for “QVQLVESGGGLVQAGGSLRLSCAASGRTFSYNAMGWYRQAPGKERELVAAINGDGGSTYYADSVKGRFTISRDNAKNTVYLQMNSLKPEDTAVYYCNRPRIYRYGYWGQGTQVTVSS”: “high polyreactivity”. As to “QVQLVESGGGLVQAGGSLRLSCAASGITFYSYAMGWYRQAPGKERELVAAINRSGGSTYYADSVKGRFTISRDNAKNTVYLQMNSLKPEDSAVYYCAAEEGRVFSGGYDYWGQGTQVTVSS”, the “polyreactivity (PSR sort gate)” value is on record as “high polyreactivity”. As to “QVQLVDSGGGLVQAGGSLRLSCAASGFIFGINAMGWYRQAPGKERELVSAISTGDRTNYADSVKRRFTISRDNAKNTVYLQMYSLKPEDTAVYYFAKDWRRNRPYEWTYDYWGQGTQVTVSS”, the “polyreactivity (PSR sort gate)” value was “low polyreactivity”. Take “QGQLVESGGGLVQAGGSLRLSCAASGSIFYWYAMGWYRQAPGKERELVAVISTGTSTKYADSVKGRFTISRDNAKNTVYLQMNSLKPEDTAVYYCNADPVGPKYDYWGQGTQVTVSS”: the “polyreactivity (PSR sort gate)” value is “low polyreactivity”. The same measure for “QVQLVESGGGLVQAGGSLRLSCAASGSTFTAYVMGWYRQAPGKERELVAAISRSGGRTYYADSVKGRFTISRDNAKNTVYLQMNSLKPEDTAVYYCAARSGPLAYDYWGQGTQVTVSS”: “high polyreactivity”; for “QVQLVESGGGLLQAGGSLRLICAASGFIVRRYAMGWYRQAPGKARELVAAITSGGSTYYADSVKGRFTISRDNAQYTVYLQFNSMKPVDTADYYCNAYFTGKWYDYWGQGTQVTVSS”: “high polyreactivity”; for “QGQLVESGGGIVQAGCSLLLSCSASGLIFRRKTLGWYRQAPGTERELVAVISSSGSSTYYADSVKGRFTISRDNAKNTVYLQMNSLKPEDTAVYYCAARYAIGPGYDYWGQGTQVTVSS”: “high polyreactivity”.

Turning to “QVQLVESGGGLVQAGGSLRLSCAATGFIFPYYAMGLYRQAPGKEREMVAAITFSATRTYYADSVKGRFTISRDNAKNTVYLQMNSLKPEDTAVYYCNARGGVYGSYFEFNYWGQGTQVTVSS”, the “polyreactivity (PSR sort gate)” value is “low polyreactivity”. On to “QVQLVESGGGLVQAGGSLRLSCAASGSTFRYYTMGWYRQAPGKERELVAAISSSGTRTYYADSVKGRFTISRDYAKNTVYLQMNSLKPEDTAVYYCDTVFLRSDGWRRSNMDYWGQGTQVTVSS”, for which the “polyreactivity (PSR sort gate)” value is “high polyreactivity”.

In the case of “QVQLVESGGGLVQAGGSLRLSCAACGFIFYYNAMGWYRQAHGKVRELVAAISSSAGSTYYADSVKGRFTISRDNAKNTVYLQMNSLKPEDTAVYDCAASRPPNTSNTGYGSWGQGTQVTVSS”, the “polyreactivity (PSR sort gate)” value is recorded as “low polyreactivity”. For “QVQLVESGGGLVQAGGSLRLSCAASGITFVRNAMGWYRQAPGKEREFVAAISGSGVSTYADSVKGRFTISRDNAKNTVYLQMNSLKQEDTAVYYCNTDEWYHFYHGSHKYDYWGQGTQVTVSS” the value was “low polyreactivity”; for “QVQLVESGGGLVQAGGSLRLSCAASGRIFGSYVMGWYRQAPGKERELVAAISRRGGSTYYADSVKGRFTISRDNAKNTVYLQMNSLKPEDTAVDYCAAEFSPSSNPYDYWGQGTQVTVSS”, “high polyreactivity”.

For the sequence “QVQLVESGGGLVQAGGSLRLSCAASGRTFFQYGMGWYRQAPGKERELVASITRSGGRTNYADSVKGRFTISRDNAKNTVYLQMNSLKPEDTAVYYCAAYYYGSAAYGYGYNYWGQGTQVTVSS”, the “polyreactivity (PSR sort gate)” value is on record as “high polyreactivity”. Take “QVQLVESGGGLVQAGGSLRLSCAASGRIFGAYAMGSYRQAPGKERELVAAIDIRGGKTYYADSVKGRFTISRDYSKNSVYLQMNSMKPEDTAVYYCAADTWYDAYNYWGQGTQVTVSS”: the “polyreactivity (PSR sort gate)” value was “low polyreactivity”. The same measure for “QVQLVESGGGLVQAGGSLRLSCAASGRILYGYAMGWYRQAPGKERELVASIPWSGGSTYADSVKGRFTISRDNAKNTVYLQMNSLKPEDTAVYYCATRRGPKWQWLTYGYWGQGTQVTVSS”: “low polyreactivity”; for “QVQLVESGGGLVQAGGSLRLSCAASGFTFWLYAMGWYRQAPGKERELVATISWSGGSTYYADSVKGRFTISRDNAKNTVYLQMNSLKPEDTAVYYCAARLNYGNKYDYWGQGTQVTVSS”: “high polyreactivity”; for “QVQLVESGGGLVQAGGSLRLSCAASGIILKFYAMGWYRQAPGKERELVAAISRGGRTNYADSVKGRFTISRDNANNTVYLQMNSLKPEDTAVYYCAAKSYTYYRNYDYWGQGTQVTVSA”: “high polyreactivity”.
